# Assay: label from the status in PepcDB records
row,Sequence,protein production
1,MELANKMLHALEHEDMALAKKYFDEVVQAGTDEEQYYLAEELFALGFLDETEDLYELLLAKYKDEGELLVRAAEVALEKDDMDAAQDYLEKVNKEDEAYIESLLVLADLYQMQGLFEVSEQKLLEAKQMAPNEPIIDFALGEYYLSQARFASAVQSYQTAVEAGLTIISNGAVSVYERIAEAFAASGAFEEALPYYERALEDKESVDTLFGMGLTAYQAKDYTKAIHALEHLREHDPSYTTLYSYLAKSYEENGEPEKAIAVLRDGLTQDEFNKEMFLEAGKLAVTLRLPEEAEEFYRQAIVLDEEFSEAIMQLNKLLLAKENYEGVIELVEGLGEEVISEPQIFWDVSVAYQETEQYNKAKANYELAYPHFTNNPTFLKEYGLFLREEGEHAKSQEVLRSYLELEPEDTEILSLFD,failed
2,MPGVTVKDIDQHAVTKAVAVFLKKTGKLKVPDQMDIVKTAKFKELAPYDPDWFYVRCASILRHLYHRSPAGVGSITKIYGGRKRNGVHPSHFCRAADGAARKALQALEHARLVEKHPDGGRKLSSIGQRDLDRIANQIVFKQRDAAKQTGPIVISK,failed
3,PPEAYSLDTAIFVLETRDYRLSDVKEIDSYGDVEMKGKVAVFETEYGPVFLYVYKGEEAKKIWKKLNGRAGFVSIRSVLDLPNMGKFSTVSNGKKIVAWWRKNWLFIVEGKNGVEEFVKHVYRVYEEMKQ,not failed
4,MEHASKRDTMAPSGTIPGNGGVNAPSAARVDWVDYAKGICIVMVVMMHSVLGVELAAGETGFMHVAVAFAKPFRMPDFFLISGLFLSLVIDRDWRTYLDRKVVHFAYFYVVWVTIQFGFKAPAFAAETSWREVGLLYLESFIEPFGTLWFIYLLPVFFVVTKLTRRVPPLAIWLIAAALETARIATGWTAIDEFCARFVYFYSGYLFAPYVFALSDRARSHPGPALAALATWALINAGLVAYGASEWKVVSLVLGFAGACAIITMGTLLARAQWLNFFRFCGEHSIVIYLAFFLPMAATRTLLLRTGVIPDIGTVSLIVTIAGVLGSLAIWQAALRLGADFLFERPDAFWIAPKKAGVRLQAAE,failed
5,MEPDMTQAFDDDTLRFYRGNATAYAERQPRSATLTKFLGELPAGAKILELGCGAGYQAEAMLAAGFDVDATDGSPELAAEASRRLGRPVRTMLFHQLDAIDAYDAVWAHACLLHVPRDELADVLKLIWRALKPGGLFYASYKSGEGEGRDKLARYYNYPSEEWLRARYAEAGTWASVAVESSEGKGFDQELAQFLHVSVRKPELEHHHHHH,not failed
6,MSELFSNDNIFLNVNVNSQNEAIEKAGKALVDSGAVTDAYIQAMKDREQVVSTFMGNGLAIPHGTDEAKTNVIHSGLTLLQIPEGVDWDGEVVKVVVGIAGKDGEHLDLLSKIAITFSEEENVDRIVQAKSAEEIKQVFEEADA,failed
7,MCTKNETKPLPSFIEERLNFHIQDLIKSNENQKHLVLGKRPSENAVVMQSNDYLSLSHNELIQKAHRDAISERDDNVVMSAIFLQDDQSKPAFEHQLATFVGMESCLLSQSGWAANIGLLQTICAPNLPVYIDFFAHMSLWEGARTAGAQIHPFMHNNMNHLRKQIQRHGAGIIVVDSVYSTIGTIAPLRAIYEMAKEFDCGLVVDESHSLGTHGPEGSGLLQKLGLTQMVDFVTVSLAKTFAYRAGAILGPNKLAQSLPFVAYPAIFSSTVLPQEVVRLEKTLEVIKAADDKRECLFKRAKELAIGLKRIGFNIRSESQIIALECGSERNTERVRDFLEERDVFGAVFCRPATGRNKNIIRFSVNADMTAQQVDHVLSACQEAFDHPDLEFV,not failed
8,MTLITVVFVAFALLVIFYTNFMTHTLCERKQIAASRQPGVFRVINVCITILLISSYIEIIFHGK,failed
9,MRCKRHTVDFSSSIGVCASCLRERLFTLAVSTAASENDDNDHRHSRISPPPLLFPRSVSPYVAPRKSDAGTGTGAGGRDSVASSNNRFFATPQVVVQSSSSEKVFESDRSFKKKKSGLSRFSSFFRTRSDDYDSRRDSCDASTVFSQPSSATTSRSWFSKVISVRSKKQSTTNTCYIEDLIASESDHHHHNQNRPRQRYCRGMSPAGDSTTNDESVEESPGRLRRTPVMGTPGRKKTATIGIGRSVSGMAFCLSPLVRAKPNCSSNWKAKFPPDFGYSGELKSPAKPHLSTAASFCGNRSKKLVDLGRVDHRR,failed
10,MLKTTKKSLLVFMGVFFLIFGVDQAIKYAILEGFRYESLMIDIVLVFNKGVAFSLLSFLEGGLKYLQILLILGLFIFLMRQRELFKNHAIEFGMVFGAGVSNVLDRFVHGGVVDYVYYHYGFDFAIFNFADVMIDVGVGVLLLKQFFFKQKQNKIKA,failed
11,MTTNSSSNTVVVYHSGYGHTHRMAEAVAEGAEATLHAIDAEGNLSEDGWAALDAADAIIFGTPTYMGGPSWQFKKFADASSKPWFSAKWQDKVFGGFTNSASLNGDKLNTLQYLVLLAGQHGGLWVSLGIKPSNLKSSVRNDANRMGSYIAPMAQSDADAAPEEMSVGDLETARLYGARVANVARQHKSTERV,not failed
12,MATIIFAGRSNVGKSTLIYRLTGKKVRRGKRPGVTRKIIEIEWKNHKIIDMPGFGFMMGLPKEVQERIKDEIVHFIEDNAKNIDVAVLVVDGKAAPEIIKRWEKRGEIPIDVEFYQFLRELDIPTIVAVNKLDKIKNVQEVINFLAEKFEVPLSEIDKVFIPISAKFGDNIERLKNRIFEVIRERQGRRV,not failed
13,SSAHMSGLEIMDEDQLIKDVLDKFLNCHEQTYDEEFLNTFTHLSQDLLLLPGEVEQDVSTSIPSCIPFVAQPPTCEVKPKPSVKRMDKQTEEILGDEVQLFSLDEEFDYDNVMLTSKFSPAEIENIKELCKQQKRKDTSPDLEKSCD,failed
14,CGGCGEDVVGDGAGVVALDRVFHVGCFVCSTCRAQLRGQHFYAVERRAYCEGCYVATLE,not failed
15,MREIIVDNFAGGGGASTGIELAIGRSVDIAINHDPNAVAMHTTNHPDTLHYCESVYSIRPKVATAGRRVGLAWFSPDCRHFSKAKGAKPVEKTIRGLAWIVIRWALDVGPRVMMLENVEEFKTWGPLLAAEMRPDPERVGETFQAFVGMLTTGIPADHPALLECCEFLNISLDSEDAARLVNGLGYTVEYRELRACDYGAPTIRKRFFMVMRRDGQPIVWPEATHGDPKSPAVLAGKLAPWRTAAECIDWSIPAPSIFDRKKPLVENSLKRIARGI,failed
16,MRVSVVIPARNEEAYLPSALEAVLAQTLPPFEVIVVDNASTDRTREVAEAFGARVVFCGRKGVAYARQAGLLAARGEWVAMTDADSLPTPRWLERLAHKAPGAVAVYGPLRFYGVSPLEAAFSEWGYRAFLNLMALLGRPNLAGANMMVLKEAALKVGGFPEVEAREDVLLGWRLKALGPVRYARDALVLTSARRLQGGWGRFLLRQARNLLGDPRGYFGEAGERER,failed
17,AIADSKSHGWLIGANGTILETHDGGEHWEPRTFDFLRMDEEINYRFESISCYGNEGWIVGKPPILLHTQNGGKDWERIPLSSKLPGEPVLITALGPNRAELATTAGAIYTTDNGGKNWKALVKETIDATLNRTTSSGVTGASYYTGTVISITRDCNGYYLAISSRGNFYVTWHPGQEYWTPHPRDSSRRIQSMGFVQNDIHKGLWMANNGGFLGFSPPNPSLDTVSSIPFQRVDIRTGGYGILDVAFHQQKRNEVWASVGSGILYRSFDGGKHWEKDPWLDHLGSVLYRIKFVENSGFILGAKGTLLRYNG,not failed
18,MYALIHHGRRLVQLQKLSNFRVSVQNGSALSNSFSFASVADATLIDSLKGNNFTVSYLVDSLGLTTKLAESISKKVSFEERRNPDSVLSLLTSYGFTKSQISSIITIYPRLLALDAEKSIAPKLQSLQSRGASSSELTQIVSTVPKILGKRGHKSITVYYDFVKDIIEADKSSSYEKLCHSFPQGNKKNKIRNISVLRELGVAQRLLFPLLISDGQPVCGKERFEESLKKVVEMGFDPETTKFVEALRVIYRMSDKTIEEKVNVYKRLGFGVADVWAIFKKWPSFLSYSEKKITHTFETLKSCGLLKHEVLLLLKKHPKCICSSEQKIVNSIETFLGLGFSRDEFAMMVKRYPQCIDYTAETVKKKTEFIVKNMNWPLEALVSIPQVFGYSLEKRTVPRCNVIKTLISKGLMKDGSEAPPMSSVLTSTDQAFLRRYVMKHDKLAPELMAIFTGENGK,failed

# Reference: a protein production outcome set (Wang et al. 2014)
